According to the supplement of paper PMC10567573:

B1: ACBD3 (parent)
chain: YVASHKIEKEEQEKKRKEEEERRR
B2: INTS4 (parent)
chain: TIIEPAGESDNPLRFTSGLVVALD

Variants of: B1
Assay: protein stability index of a GFP-peptide fusion (GPS, HEK-293T) (PSI 1-6); higher = more stable
Details: c terminus: a fixed tail appended
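Also: lentivirally expressed fusions sorted by FACS into six bins by GFP to DsRed ratio, PSI derived from sequencing read proportions per bin multiplied by bin number.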

Protein stability index: each site, then its substitutions
E8: G 2.49 | R 2.81 | M 1.75 | H 1.96 | I 2.16 | L 2.33 | W 2.03 | V 2.1 | S 2.83 | N 2.36 | C 2.42 | Y 2.32 | A 2.23 | F 1.12 | P 2.29 | T 2.13 | K 2.57 | Q 2.14 | D 2.74
E11: R 1.93 | I 2.24 | P 1.76 | C 2.55 | A 3.79 | G 2.34 | H 3.12 | K 1.71 | M 2.2 | Y 2.37 | L 2.13 | F 3.47 | Q 2.79 | D 2.75 | S 2.57 | V 1.98 | T 4.28 | W 2.67
E13: I 2.22 | F 2.39 | T 2.33 | C 2.66 | L 2.27 | Y 2.41 | D 2.9 | M 2.04 | S 3.36 | P 2.02 | N 2.52 | G 2.15 | H 2.25 | K 1.73 | Q 2 | V 2.93 | W 2.81
S4: R 2.57 | N 2.16 | M 2.1 | A 2.9 | L 2.67 | T 2.74 | Q 3.14 | W 1.49 | K 3.67 | G 2.39 | E 3.05 | H 2.62 | F 2.07 | P 3.8 | Y 2.49 | C 2.81 | V 3.28 | D 3.95
K9: S 2.78 | E 3.42 | M 2.8 | A 3.03 | F 2.72 | L 3.07 | I 2.29 | D 3.61 | V 2 | R 1.84 | Y 2.28 | W 1.86 | T 2.42 | G 2.5 | N 3.19 | Q 3.22 | C 2.5
Y1: W 5.65 | D 5.55 | R 5.49 | E 5.83 | G 4.73 | C 4.93 | T 5.43 | P 5.43 | H 5.57 | I 5 | K 5.87 | Q 5.5 | V 5.68 | A 5.78 | N 5.77 | S 5.5 | M 5.6 | F 2.11 | L 5.56
E10: N 2.79 | G 1.9 | Y 2.08 | M 2.42 | P 1.78 | S 3.11 | C 2.19 | K 2.46 | I 2.1 | V 2.46 | H 1.66 | F 1.76 | T 2.08 | D 2.42 | A 1.55 | R 1.87 | Q 1.88 | L 2.95
Q12: A 3.33 | W 1.93 | S 1.82 | C 2.92 | V 2.02 | I 3.33 | H 2.27 | F 1.96 | P 2.31 | E 3.63 | L 2.78 | N 2.18 | T 2.52 | Y 2.67 | G 2.88 | R 2.26 | D 3.76 | K 2.12
H5: V 3.05 | W 2 | G 1.92 | L 2.82 | I 3.02 | F 2.24 | S 3.07 | Q 2.7 | M 2.5 | K 2.61 | T 3 | A 3.1 | R 2.46 | E 4.24 | D 4.25 | Y 2.42 | P 3.08 | N 2.4
A3: F 3.72 | S 3.04 | D 3.91 | K 2.95 | W 2.85 | P 1.47 | L 3.09 | T 2.98 | Q 3.36 | C 2.5 | E 2.84 | G 2.33 | V 3.36 | N 2.39 | H 2.15 | R 2.01 | I 2.61 | M 3.14 | Y 2.13
K15: W 3.36 | C 2.09 | S 2.79 | G 2.71 | F 2.06 | N 2.62 | A 3.27 | M 2.6 | R 2.69 | E 3.07 | V 2.74 | Y 2.16 | H 3.06 | Q 3.15 | L 2.2 | D 2.73 | P 2.4 | I 2.39
K6: Y 2.12 | C 2.98 | G 2.96 | V 2.95 | L 2.66 | H 3.21 | D 4.14 | E 3.67 | M 3.21 | F 2.79 | N 2.7 | P 2.67 | Q 3.76 | R 2.74 | T 2.88 | I 2.66 | S 2.77
V2: L 5.22 | D 5.36 | P 5.11 | I 4.51 | G 5.36 | M 5.36 | A 4.73 | W 4.93 | S 5.25 | T 5.24 | E 5.85 | Q 4.57 | R 5.49 | Y 4.75 | K 5.05 | H 4.14 | N 5.04 | F 5.16 | C 4.4
I7: S 3.22 | M 2.56 | K 2.89 | V 2.43 | G 3.13 | P 3.35 | A 3.29 | D 3.86 | H 3.1 | E 2.89 | F 2.53 | W 1.81 | L 2.37 | T 3.09 | R 2.67 | C 3.86 | Q 2.25 | Y 2.36
K14: G 2.79 | Y 2.27 | N 2.99 | V 3.09 | C 2.67 | D 3.27 | M 2.62 | S 2.74 | H 2.22 | L 3 | T 2.44 | Q 2.95 | W 2.69 | P 2.49 | I 3.21

Variants of: B2
Assay: as above
Details: c terminus: a fixed tail appended

Protein stability index of substitutions, site by site:
D24: S 2.06 | K 2.19 | R 1.9 | G 2.51 | Y 2.31 | W 2.4 | P 2.31 | Q 2.29 | N 2.12 | E 2.38 | I 1.33 | A 2.75 | T 2.2 | F 4.12 | C 1.35 | H 1.93 | L 1.73 | V 2.33 | M 1.98
A22: C 2.6 | F 2.03 | P 3.58 | I 1.61 | N 3.18 | Y 2.45 | K 3.21 | V 1.95 | S 3.2 | D 3.8 | R 2.93 | M 2.26 | G 2.85 | E 4.07 | H 2.78 | L 1.73 | Q 2.65 | W 1.87 | T 2.78
V21: M 2.84 | Q 3.71 | S 3.51 | Y 3 | R 3.67 | N 3.63 | T 3.67 | P 3.93 | W 2.16
L23: W 2.97 | F 2.75 | P 4.17 | E 4.4 | R 3.6 | Y 3.29 | C 3.62 | A 4.1 | I 2.4 | S 4.35 | H 3.81 | V 3.1 | G 4.16 | Q 4.56 | N 4.1 | K 4.07 | T 3.92 | D 4.53 | M 3.26
